Laboratory results published in a protein production outcome set (Wang et al. 2014).

Test: label from the status in PepcDB records
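Note: failed if final PepcDB status was selected cloned or expressed and not failed if soluble or beyond.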

| Sequence | protein production |
| --- | --- |
| MNTVFFYLQVSIKNLHDSIKNLRVSIKNLYVSIKGAGITAFLQTVKYERFEEKILMDFISNLFGRDKNQSFLEASKQGQTENVEKLLRSNKVDVNYQDAYGKTALISAADKGYRDVIGLLIESGPNLDLQDENGNTALISAAKIERGDIIDLLVKNGADLNFQDENGETALKFAVKVGYKNIADQLIDAGTDLNIQDENGETALICAADRAHRDIAELLIKAGADLNIQDNSGKTALVAATKIGHKGIVELLVNAGADLNLQDKNGNTALIYAADRGYRDIVNLLIEGGASLNIPDEAGLTALMFSAQTGRKDIVELLIKAGADINIEDKNNKTAADLAAEVGFEEIVDLLTSVRTYSSS | failed |
| MNVAEEMLSGEETLAVGERFKTFLENFRTEEGKLKYVEAIRRMINYEETSLEVEFKDLYRYDPLLSEILLEKPREFLKEASEALKEIVAQESPEYAQGRVFTPRFTGLFDTERIRDIGSDHVGKLVQINGIVTRMHPRATRMVRARFRHDRCGAEFWWPANEDEVLGERIERPSICPVCGEGGGKFTLVRDKSLYIDWQKIMVQERPEDVPGGQIPRSIEVHLSRDLVEKVRPGDRVKIVGVVGLQSFSSSSTLYSLYMEANSILLEEKILEEVSITREDEEKILQLSRDPWIKEKIIASIAPTIYGHWDLKEAIALLLFGGVPKQRPDGTRTRGDIHVLFVGDPGVAKSQLLQSTAQVAPRVVYTTGKGSTAAGLTAAVLRDPRTGEYFLEAGALVLADGGIAVIDEFDKMSKEDRGVIHEAMEQQTVSIAKAGIKATLSARASLLAAGNPKFGYYDPSRSFVDNVDLPAPIISRFDLIFVVRDVIERSRDEMLASYVLETHTNVELFKPEIDPDLLRKYIAFARKHVKPRLTPQAKKLLKDFYVEMRSSALHHSSQEGAKPVPITTRQLEALIRLTEAHARMSLKQEATEEDAIAAIRIMTSVLQSIGLDLETGEIDIGIIMTGASFRSRKIMSEVLDLIKSIVEEERGGQGCVRASEIVRRLGEKNIPEEKVRDAIDKLYRQGLIIEIRTECYKAV | failed |
| MNVDARVGVAVDGAQSALNTATTVHSSVVMTQIKPQAKLGTFQNLLAGGIAGAISKTCTAPLARLTILFQLQGMQSEGAVLSRPNLRREASRIINEEGYRAFWKGNLVTVVHRIPYTAVNFYAYEKYNLFFNSNPVVQSFIGNTSGNPIVHFVSGGLAGITAATATYPLDLVRTRLAAQRNAIYYQGIEHTFRTICREEGILGLYKGLGATLLGVGPSLAINFAAYESMKLFWHSHRPNDSDLVVSLVSGGLAGAVSSTDDKLFDAHNYVATYPLDLVRRRMQVEGAGGRARVYNTGLFGTFKHIFKSEGFKGIYRGILPEYYKVVPGVGIVFMTYDALRRLLTSLPD | failed |
| MNVELFKKFSEKVEEIIEAGRILHSRGWVPATSGNISAKVSEEYIAITASGKHKGKLTPEDILLIDYEGRPVGGGKPSAETLLHTTVYKLFPEVNAVVHTHSPNATVISIVEKKDFVELEDYELLKAFPDIHTHEVKIKIPIFPNEQNIPLLAKEVENYFKTSEDKYGFLIRGHGLYTWGRSMEEALIHTEALEFIFECELKLLSFHS | not failed |
| MNVFQMLRLPDLVSLLNLICGIGSIAVAAQSDSFGFALILLLLAAVADGADGYIARRFKGGELGEQLDSLADAVSFGVAPALLIFLEFGVEEPIVGIFAGLYAVCGVLRLARFNSSISVPKAGFEGLPITAGCIMLVTYLLLGESFVIVDVLLALTLALSILMVSTVNYPKIRNIKILAFVAAVFGITMLLYFIDVQYMRVFSFLPFILMLSYLFSPFLKIPVISIATSKDYGNRKGAKAEGRKEKQ | failed |
| MNVKRIKKRMFITFSIIAVLAIALYIFLQTAPFGNPPADARLERIRKSANYKDGVFKNLSNTPVMAEDASYMDMIKQQFSKDSTREPAVCIPSVKRDLSLVPSDRPVITWFGHSTYLIQTEGKNILIDPVFCTSTSPVQFVGNKKYKGTEVYTPADFPAINYLILTHDHYDHLDYQTTLDMQSKVFSYYMPLGVGSHLESWGIDTAKLHELDWWQEIDLEPGYKLVCLPARHFSGRSITDRGKTLWASYLLITPTHKIYIGGDSGYDTHFKQIADKYGAVDIAFLESGQYNAYWPYIHMMPEQTVQAAKDLQAKVLLPVHWGKYTLALHPWDEPIKRLTLEAHKQQVNVATPMIGEPVILDSILPHSTWWVPEGKK | failed |
| MNVVRYTPWPGQAALQNEIKQVFDRFFEHNGDTDESAVVTAQWVPRVDIKEEPNQFVLYADLPGIDPADIEVQMDKGILSIKGERKTESSSQTEHFSRIERRYGSFHRRFALPDSADADGITASGSHGVLRILIPKQAATTPRRIQVGNAVSSDVALQSMLEHHHHHH | not failed |
| MNVYFLGGGNMAAAVAGGLVKQGGYRIYIANRGAEKRERLEKELGVETSATLPELHSDDVLILAVKPQDMEAACKNIRTNGALVLSVAAGLSVGTLSRYLGGTRRIVRVMPNTPGKIGLGVSGMYAEAEVSETDRRIADRIMKSVGLTVWLDDEEKMHGITGISGSGPAYVFYLLDALQNAAIRQGFDMAEARALSLATFKGAVALAEQTGEDFEKLQKNVTSKGGTTHEAVEAFRRHRVAEAISEGVCACVRRSQEMERQYQ | not failed |
| MNWQLKSKEAEVMNKLSLFLGCIVPNRYPGIEKATKLCLQRLEIDACDLPGASCCPAPGVFKSFDKATWLALASRNIVLSERMERDVLTVCNGCYGSLADANMELKKDPEMKACTNSCLKEIGMEFRGTSEIRHIIEFLYKEFGPEKLKEYITTPLDLKVALHYGCHLIKPSKDRNLGDTESPVFFDELVEATGAKSVDYTDKMMCCGAGGGVRSGYADESLEMLEHKLDCICKAGVDCIVNACPFCHLQFDRGQIAVNEKFGTDYSIPVLHYSQLLGLALGFSPDQLGIEQNAVQNIEFLAKIYEISAGLS | failed |
| MNYASNTFELIAKEWLQMKDWAEITKTRRLDMLERVVFPAIGKLPVREITPHHILKILQETAKRGAPTVAAEARRTISSVFELAVATLRADSDPVWPVRKALPANKTQHLEHHHHHH | not failed |
| MNYILHLSILLVVAKLLEWLFEKKDIHPIIAHILTGIILGPFLLGIIYPNEELKVLSEFGLIMMMLYMGLTSNFSAIAQNKVKAIVVASLGVAFSFILGFTTVYLFGKGISAALFVGITLGNTAIEVTSGVIMKERIKREISSVLMGAAFADDIIAVYLIGILTGMIKGQTSLLSLAILTIKIVAFILSVLIFSEFVFKKSSLIYNLVIKDLNVFFTFTIILTFSLAVIAEGIGLNRIIGAYLAGLTISRLRERKDPLIISRIKLNELINELQVVLTEFFIPLFFIYVGLMFDPDTSEINLLLIALLYASAILGKLIGCGLGVKVFKGSWKDAVIVGIGMGGRGSLDLALLKFGLESGMIGEDLFATTVIVSMLTALSTPIFFRKTVKKLSEE | failed |
| MNYPLTLEMDLENLEDLFWELDRLDNYNDTSLVENHLCPATEGPLMASFKAVFVPVAYSLIFLLGVIGNVLVLVILERHRQTRSSTETFLFHLAVADLLLVFILPFAVAEGSVGWVLGTFLCKTVIALHKVNFYCSSLLLACIAVDRYLAIVHAVHAYRHRRLLSIHITCGTIWLVGFLLALPEILFAKVSQGHHNNSLPRCTFSQENQAETHAWFTSRFLYHVAGFLLPMLVMGWCYVGVVHRLRQAQRRPQRQKAVRVAILVTSIFFLCWSPYHIVIFLDTLARLKAVDNTCKLNGSLPVAITMCEFLGLAHCCLNPMLYTFAGVKFRSDLSRLLTKLGCTGPASLCQLFPSWRRSSLSESENATSLTTF | failed |
| MNYRLIPALFLIVMGALFLLDNLGLAHMDVGNLIATWWPVFLIAAGVRQLLRYRQRAAATC | failed |
| MNYSHPISLKTLVQEDDIGVNAPIIHQSVIARLTAGLYPLYQSKKIPFEPLPETMLTEGYSSPVPDVLLYDHQTEEAKVIIEVCQNSGLKHDTSKIVKLIEDNAYGILEGFVFNYKTQQWLRYRLGDGGVATNSSFSEVLQVDLNTFV | not failed |
| MNYVVLGASAAGINAVKTLRELDKDSNIVVISKDENVYSRCMLHHVISEHRTLKQINFVDEDFMEQNNVKWIAGKTVKGIDINKKVVQTEDITVNYDKLLIATGASSAIPPIKNLRDGNFVYSVRNIDDIYKIKEKAQNSKNVVIIGAGLVGIDALVGLFKYEQLNISVAFMEKYILDRQLDEYTASVYENKFKEKGVKFYPSASIQEIVLDNSKNVTGVAFSNGEVLDADMVIVATGVKPNADFLDGTGIEYDRGIIIDDMCQTTQKDIYAAGDVVGKNAIWPLAVKQGIVAAYNMVGKDKKIEDEFAFKNSMNFMDIPTISIGMNTPVDDSYKVLTRHGINDYKKFVFKDNVIYGAVIQGDISYVGVLTYLIKNKVEIYDLENRIFDICYADFFNIKENGEFCYSV | failed |
